In US20240383984A1 (Genentech, published 2024):

Tests used:
Test in all cases: FACS, SVT2 cells
[1] = molecular target: T1, Human E11-TM-ICD (E11 domain, transmembrane domain, and cytoplasmic domains of human FcRH5, on SVT2 cells) (human, UniProt Q96RD9 745-977)
T1 construct: On cells
T1 sequence: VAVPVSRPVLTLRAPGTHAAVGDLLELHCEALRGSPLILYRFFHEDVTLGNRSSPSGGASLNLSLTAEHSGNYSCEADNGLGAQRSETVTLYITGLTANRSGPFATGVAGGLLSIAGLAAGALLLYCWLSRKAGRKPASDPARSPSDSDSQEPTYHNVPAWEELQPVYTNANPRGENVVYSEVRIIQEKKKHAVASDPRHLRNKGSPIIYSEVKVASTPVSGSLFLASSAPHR

[2] = molecular target: T2, human FcRH3 (full-length, on SVT2 cells) (human, UniProt Q96P31 18-734)
T2 construct: whole, on cells; also called SVT2-FcRH3
T2 sequence (looked up): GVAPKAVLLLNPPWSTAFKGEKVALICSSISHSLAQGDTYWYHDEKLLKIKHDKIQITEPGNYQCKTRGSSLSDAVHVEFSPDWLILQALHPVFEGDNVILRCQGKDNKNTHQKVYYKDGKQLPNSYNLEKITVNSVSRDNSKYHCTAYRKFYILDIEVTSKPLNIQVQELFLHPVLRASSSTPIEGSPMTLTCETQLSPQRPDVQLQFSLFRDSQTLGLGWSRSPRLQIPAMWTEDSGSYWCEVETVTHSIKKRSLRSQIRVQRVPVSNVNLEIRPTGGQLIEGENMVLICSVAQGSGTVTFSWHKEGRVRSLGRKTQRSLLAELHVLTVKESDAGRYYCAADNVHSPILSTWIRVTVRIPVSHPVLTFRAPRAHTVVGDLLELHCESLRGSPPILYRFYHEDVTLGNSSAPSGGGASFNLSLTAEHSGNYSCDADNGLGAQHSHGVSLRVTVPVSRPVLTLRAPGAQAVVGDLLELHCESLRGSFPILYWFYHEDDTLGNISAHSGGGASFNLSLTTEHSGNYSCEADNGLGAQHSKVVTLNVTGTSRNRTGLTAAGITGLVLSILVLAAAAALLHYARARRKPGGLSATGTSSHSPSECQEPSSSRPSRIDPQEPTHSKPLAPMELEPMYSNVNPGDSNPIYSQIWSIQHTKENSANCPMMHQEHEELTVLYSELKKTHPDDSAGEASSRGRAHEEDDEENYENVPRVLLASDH

[3] = molecular target: T3, human FcRH5 (full-length, on cells) (human, UniProt Q96RD9 16-977)
T3 construct: Transfected SVT2/293 cells or endogenous expression (MOLP-2, primary cells); also called SVT2-FcRH5; SVT2-huFcRH5
T3 sequence: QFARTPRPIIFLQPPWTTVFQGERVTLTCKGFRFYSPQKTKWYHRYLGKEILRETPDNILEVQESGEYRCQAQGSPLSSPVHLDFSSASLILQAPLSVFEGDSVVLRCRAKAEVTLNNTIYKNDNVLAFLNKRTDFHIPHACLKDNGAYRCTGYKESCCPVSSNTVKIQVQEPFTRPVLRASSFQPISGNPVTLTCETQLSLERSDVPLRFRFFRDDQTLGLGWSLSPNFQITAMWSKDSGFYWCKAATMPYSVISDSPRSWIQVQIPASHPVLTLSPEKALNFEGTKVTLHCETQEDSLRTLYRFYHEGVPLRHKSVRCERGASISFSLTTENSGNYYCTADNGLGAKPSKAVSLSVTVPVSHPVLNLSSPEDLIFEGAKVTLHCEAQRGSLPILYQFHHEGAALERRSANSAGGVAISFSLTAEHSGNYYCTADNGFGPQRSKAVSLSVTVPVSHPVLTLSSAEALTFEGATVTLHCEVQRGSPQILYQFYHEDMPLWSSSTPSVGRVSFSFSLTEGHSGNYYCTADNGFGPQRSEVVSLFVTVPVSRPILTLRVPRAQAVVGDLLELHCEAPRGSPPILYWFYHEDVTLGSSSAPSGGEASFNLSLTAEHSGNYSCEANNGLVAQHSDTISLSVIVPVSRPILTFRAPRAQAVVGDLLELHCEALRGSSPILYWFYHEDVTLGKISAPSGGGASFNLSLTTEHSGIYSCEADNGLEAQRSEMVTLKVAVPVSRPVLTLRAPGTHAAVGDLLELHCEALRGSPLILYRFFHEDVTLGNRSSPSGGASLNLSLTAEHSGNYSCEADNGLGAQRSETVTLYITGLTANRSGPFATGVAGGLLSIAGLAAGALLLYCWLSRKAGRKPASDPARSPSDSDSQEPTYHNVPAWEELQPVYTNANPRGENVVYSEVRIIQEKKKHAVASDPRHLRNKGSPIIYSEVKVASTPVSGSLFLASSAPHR

[4] = molecular target: T4, human FcRH2 (full-length, on SVT2 cells) (human, UniProt Q96LA5 20-508)
T4 construct: whole, on cells; also called SVT2-FcRH2
T4 sequence (looked up): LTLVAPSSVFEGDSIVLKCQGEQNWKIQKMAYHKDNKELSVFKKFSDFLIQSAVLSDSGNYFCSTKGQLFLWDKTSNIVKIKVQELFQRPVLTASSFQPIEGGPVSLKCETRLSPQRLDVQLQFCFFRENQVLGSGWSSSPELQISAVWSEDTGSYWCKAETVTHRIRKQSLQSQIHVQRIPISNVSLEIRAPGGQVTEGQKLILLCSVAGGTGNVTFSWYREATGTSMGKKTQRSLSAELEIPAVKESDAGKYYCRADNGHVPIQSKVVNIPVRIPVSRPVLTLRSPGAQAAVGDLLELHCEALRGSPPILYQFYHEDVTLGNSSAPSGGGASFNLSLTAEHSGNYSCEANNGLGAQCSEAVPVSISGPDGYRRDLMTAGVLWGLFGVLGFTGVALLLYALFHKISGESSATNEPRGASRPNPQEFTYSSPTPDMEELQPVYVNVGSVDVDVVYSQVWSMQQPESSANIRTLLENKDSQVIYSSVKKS

Row | Binder | binding result [1] | binding result [2] | binding result [3] | binding result [4]
1 | 15G8 (antibody, mouse IgG2a, V domains shown, mouse mAb, Campaign C; recombinant murine IgG2a for SPR; also called mAb 15G8) VH: EVQLQQSGPELVKPGASVKMSCKASGYTFTNYVIHWMKQKPGQGLEWIGYISPYNDYTKYNEKFEGKATLTSDKSSNTAYMELSSLTSEDSAVYYCARRDYYGSSDYWGQGTTLTVSS VL: QIVLTQSPAIMSASPGEKVTMTCSASSSVDYMHWYQQKSGTSPKKWIYDTSKLASGVPARFSGSGSGTSYSLTIGSMEAEDAATYYCQQWSSNPPTFGGGTKLEIK | binds | no binding | binds | no binding
2 | 17B1 (antibody, mouse IgG2a, V domains shown, mouse mAb, Campaign C; recombinant murine IgG2a for SPR) VH: QVQLQQSGPELVRPGVSVKISCKGSGYTFTHYAMHWVKQSHTKSLEWIGMISSSSGNTNFNQKFMDKATMTVDKSSTTAYLELARLTFGDSAIYYCARWSYYALFDYWGQGTTVTVSS VL: ENVLTQSPAIMSASPGEKVTMTCSADSSVDYIHWYQQKSNTSPKLWIYDTSKLASGVPGRFSGSGSGNSYSLTISSMEAEDFATYYCFQGSGYPLTFGSGTKLELK | binds | no binding | binds | no binding
